Assay [1] has as its target T1, peptide with N-terminal histidine.
T1 construct: also called peptides with N-terminal histidine residues
The experiment in a line: biolayer interferometry (Blitz), peptide-coated sensor, NAAB in 1x PBS, 1:1 fit, kd/ka.

Assay [2] shares this target. The experiment in a line: biolayer interferometry kinetics; reference: truncated wild-type HisRS fragment.

B1: engineered HisNAAB (3-180) (designed binder)
chain: KNIQAIRGMNDYLPGETAIWQRIEGTLKNVLGSYGYSEIRLPIVEQTPLFKRAIGEVTDVVEKEMYTFEDRNGDSLTLRPEGTAGCVRAGIEHGLLYNQEQRLWYIGPMFGNAPQFHQLGCEVFGLQGPDIDAELIMLTARWWRALGISEHVTLELNSIGSLEARANYRDA
As a reminder, the Kd is a measure of binding affinity in units of concentration. B1 gave a dissociation constant (Kd) in assay [1] of 98.7 µM. In addition, the “fold improvement in binding affinity against the wild-type fragment” value in assay [2] is approximately 10 fold.

These data come from US20210072252A1 (WASHINGTON UNIVERSITY, published 2021).
